Reference: IntAct's records for PubMed 24076405

B1: SCL-interrupting locus protein (Homo sapiens), Q15468 (parent)
chain: MEPIYPFARPQMNTRFPSSRMVPFHFPPSKCALWNPTPTGDFIYLHLSYYRNPKLVVTEKTIRLAYRHAKQNKKNSSCFLLGSLTADEDEEGVTLTVDRFDPGREVPECLEITPTASLPGDFLIPCKVHTQELCSREMIVHSVDDFSSALKALQCHICSKDSLDCGKLLSLRVHITSRESLDSVEFDLHWAAVTLANNFKCTPVKPIPIIPTALARNLSSNLNISQVQGTYKYGYLTMDETRKLLLLLESDPKVYSLPLVGIWLSGITHIYSPQVWACCLRYIFNSSVQERVFSESGNFIIVLYSMTHKEPEFYECFPCDGKIPDFRFQLLTSKETLHLFKNVEPPDKNPIRCELSAESQNAETEFFSKASKNFSIKRSSQKLSSGKMPIHDHDSGVEDEDFSPRPIPSPHPVSQKISKIQPSVPELSLVLDGNFIESNPLPTPLEMVNNENPPLINHLEHLKPLQPQLYDEKHSPEVEAGEPSLRGIPNQLNQDKPALLRHCKVRQPPAYKKGNPHTRNSIKPSSHNGPSHDIFEKLQTVSAGNVQNEEYPIRPSTLNSRQSSLAPQSQPHDFVFSPHNSGRPMELQIPTPPLPSYCSTNVCRCCQHHSHIQYSPLNSWQGANTVGSIQDVQSEALQKHSLFHPSGCPALYCNAFCSSSSPIALRPQGDMGSCSPHSNIEPSPVARPPSHMDLCNPQPCTVCMHTPKTESDNGMMGLSPDAYRFLTEQDRQLRLLQAQIQRLLEAQSLMPCSPKTTAVEDTVQAGRQMELVSVEAQSSPGLHMRKGVSIAVSTGASLFWNAAGEDQEPDSQMKQDDTKISSEDMNFSVDINNEVTSLPGSASSLKAVDIPSFEESNIAVEEEFNQPLSVSNSSLVVRKEPDVPVFFPSGQLAESVSMCLQTGPTGGASNNSETSEEPKIEHVMQPLLHQPSDNQKIYQDLLGQVNHLLNSSSKETEQPSTKAVIISHECTRTQNVYHTKKKTHHSRLVDKDCVLNATLKQLRSLGVKIDSPTKVKKNAHNVDHASVLACISPEAVISGLNCMSFANVGMSGLSPNGVDLSMEANAIALKYLNENQLSQLSVTRSNQNNCDPFSLLHINTDRSTVGLSLISPNNMSFATKKYMKRYGLLQSSDNSEDEEEPPDNADSKSEYLLNQNLRSIPEQLGGQKEPSKNDHEIINCSNCESVGTNADTPVLRNITNEVLQTKAKQQLTEKPAFLVKNLKPSPAVNLRTGKAEFTQHPEKENEGDITIFPESLQPSETLKQMNSMNSVGTFLDVKRLRQLPKLF
B2: Centrosomal P4.1-associated protein (Homo sapiens), Q9HC77 (parent)
chain: MFLMPTSSELNSGQNFLTQWMTNPSRAGVILNRGFPILEADKEKRAAVDISTSFPIKGTHFSDSFSFINEEDSLLEEQKLESNNPYKPQSDKSETHTAFPCIKKGPQVAACHSAPGHQEENKNDFIPDLASEFKEGAYKDPLFKKLEQLKEVQQKKQEQLKRQQLEQLQRLMEEQEKLLTMVSGQCTLPGLSLLPDDQSQKHRSPGNTTTGERATCCFPSYVYPDPTQEETYPSNILSHEQSNFCRTAHGDFVLTSKRASPNLFSEAQYQEAPVEKNNLKEENRNHPTGESILCWEKVTEQIQEANDKNLQKHDDSSEVANIEERPIKAAIGERKQTFEDYLEEQIQLEEQELKQKQLKEAEGPLPIKAKPKQPFLKRGEGLARFTNAKSKFQKGKESKLVTNQSTSEDQPLFKMDRQQLQRKTALKNKELCADNPILKKDSKARTKSGSVTLSQKPKMLKCSNRKSLSPSGLKIQTGKKCDGQFRDQIKFENKVTSNNKENVTECPKPCDTGCTGWNKTQGKDRLPLSTGPASRLAAKSPIRETMKESESSLDVSLQKKLETWEREKEKENLELDEFLFLEQAADEISFSSNSSFVLKILERDQQICKGHRMSSTPVKAVPQKTNPADPISHCNRSEDLDHTAREKESECEVAPKQLHSLSSADELREQPCKIRKAVQKSTSENQTEWNARDDEGVPNSDSSTDSEEQLDVTIKPSTEDRERGISSREDSPQVCDDKGPFKDTRTQEDKRRDVDLDLSDKDYSSDESIMESIKHKVSEPSRSSSLSLSKMDFDDERTWTDLEENLCNHDVVLGNESTYGTPQTCYPNNEIGILDKTIKRKIAPVKRGEDLSKSRRSRSPPTSELMMKFFPSLKPKPKSDSHLGNELKLNISQDQPPGDNARSQVLREKIIELETEIEKFKAENASLAKLRIERESALEKLRKEIADFEQQKAKELARIEEFKKEEMRKLQKERKVFEKYTTAARTFPDKKEREEIQTLKQQIADLREDLKRKETKWSSTHSRLRSQIQMLVRENTDLREEIKVMERFRLDAWKRAEAIESSLEVEKKDKLANTSVRFQNSQISSGTQVEKYKKNYLPMQGNPPRRSKSAPPRDLGNLDKGQAASPREPLEPLNFPDPEYKEEEEDQDIQGEISHPDGKVEKVYKNGCRVILFPNGTRKEVSADGKTITVTFFNGDVKQVMPDQRVIYYYAAAQTTHTTYPEGLEVLHFSSGQIEKHYPDGRKEITFPDQTVKNLFPDGQEESIFPDGTIVRVQRDGNKLIEFNNGQRELHTAQFKRREYPDGTVKTVYANGHQETKYRSGRIRVKDKEGNVLMDTEL
partner: B1 chain

Variants of: B1
Settings: with cpap_human CPAP

| effect of a mutation on the interaction | Variant |
| --- | --- |
| decreasing interaction strength | K419E |
| decreasing interaction strength | R405I |

Variants of: B2
Settings: with stil_human STIL

| effect of a mutation on the interaction | Variant |
| --- | --- |
| decreasing interaction strength | F1229A |
| decreasing interaction strength | Y1210A |
| decreasing interaction strength | Y1208A |
| decreasing interaction strength | E1235V |
| decreasing interaction strength | E1235K |
